Results published in US20090275081A1.

Columns and labels:
[1] = target: carcinoembryonic antigen (CEA) on LS174T-CEA+ human colon carcinoma cells (human) (UniProt P06731); test: flow cytometry on live LS174T-CEA+ cells, detected with Qdot655SA; percent positive staining
[2] = target: streptavidin agarose beads (ImmunoPure streptavidin coated beads, Pierce) (UniProt P22629); test: pull-down of 3.5 ug purified protein on streptavidin agarose beads, Western blot with SA HRP
[3] = target: carcinoembryonic antigen (CEA) on LS174T-CEA+ human colon carcinoma cells (human) (UniProt P06731); test: flow cytometry on live LS174T-CEA+ cells, detected with Alexa Fluor 488 streptavidin; percent positive staining
[4] = target: streptavidin agarose beads (ImmunoPure streptavidin coated beads, Pierce) (UniProt P22629); test: pull-down on streptavidin agarose beads, Western blot

Sequence of UniProt P22629 (P22629 37-163 limits assumed): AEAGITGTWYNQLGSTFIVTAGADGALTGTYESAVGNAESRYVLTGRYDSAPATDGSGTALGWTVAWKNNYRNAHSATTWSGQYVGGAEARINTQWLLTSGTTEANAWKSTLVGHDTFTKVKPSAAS
Sequence of UniProt P06731 (P06731 35-702): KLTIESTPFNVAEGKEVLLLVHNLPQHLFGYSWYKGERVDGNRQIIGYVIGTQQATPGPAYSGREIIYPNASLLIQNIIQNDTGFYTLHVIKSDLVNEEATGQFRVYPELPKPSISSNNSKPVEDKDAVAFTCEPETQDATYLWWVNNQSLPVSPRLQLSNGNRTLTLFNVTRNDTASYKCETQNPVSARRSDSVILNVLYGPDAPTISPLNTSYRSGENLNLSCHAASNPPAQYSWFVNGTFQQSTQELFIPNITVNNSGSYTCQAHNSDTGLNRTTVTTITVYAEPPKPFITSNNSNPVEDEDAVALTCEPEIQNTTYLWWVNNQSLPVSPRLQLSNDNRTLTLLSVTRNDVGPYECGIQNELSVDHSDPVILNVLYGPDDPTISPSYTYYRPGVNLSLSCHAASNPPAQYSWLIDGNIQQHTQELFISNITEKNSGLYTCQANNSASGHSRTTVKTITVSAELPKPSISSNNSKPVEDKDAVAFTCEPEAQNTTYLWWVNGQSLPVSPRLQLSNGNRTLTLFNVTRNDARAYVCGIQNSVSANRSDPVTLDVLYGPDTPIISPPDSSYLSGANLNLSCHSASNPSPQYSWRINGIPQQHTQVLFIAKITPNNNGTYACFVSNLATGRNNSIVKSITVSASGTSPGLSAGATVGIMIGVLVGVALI

Row | LS174T binding (%), Qdot streptavidin [1] [%] | Binding with streptavidin agarose (%) [2] [%] | LS174T binding (%), Streptavidin Alexa [3] [%] | percent unbound [4] [%] | Substance
1 | 17.7 | 95 | 11.7 | – | Db-BD123 (biotinylated anti-CEA T84.66 diabody fused to the 123 aa biotin acceptor domain of P. shermanii)
2 | 41 | 90 | 56 | 10 | Db-BP15-His (biotinylated anti-CEA T84.66 diabody with 15 aa biotin acceptor peptide followed by 6xHis tag)
